Results on 17 proteins are retold here after PMC12723238, “Structural basis for T-cell intracellular antigen-1 amyloid fibril formation revealed by cryo-electron microscopy” (PNAS Nexus, 2025).

B1: synthesized peptide of the 25-residue TIA-1 fibril core (TFC peptide), residues 336-360 (peptide, UniProt P31483 336-360, looked up)
peptide: GQAWNQQGFNQTQSSAPWMGPNYGV
notes: TIA-1, human, fibril core region, residues 336-360 (25 residues); also called TFC peptide fibrils; TFC fibrils; source: synthetic peptide
B2: human TIA-1 sPLD (residues 320-386) E384K (domain or fragment, UniProt P31483 320-386, looked up)
chain: GQYMPNGWQVPAYGMYGQAWNQQGFNQTQSSAPWMGPNYGVQPPQGQNGSMLPNQPSGYRVAGYKTQ
notes: TIA-1, human, short PLD, residues 320-386, with the disease-associated missense mutation E384K
B3: human TIA-1 sPLD (residues 320-386) W339A (domain or fragment, UniProt P31483 320-386, looked up)
chain: GQYMPNGWQVPAYGMYGQAANQQGFNQTQSSAPWMGPNYGVQPPQGQNGSMLPNQPSGYRVAGYETQ
notes: TIA-1, human, short PLD, residues 320-386, with W339A
B4: human TIA-1 sPLD (residues 320-386) P362L (domain or fragment, UniProt P31483 320-386, looked up)
chain: GQYMPNGWQVPAYGMYGQAWNQQGFNQTQSSAPWMGPNYGVQLPQGQNGSMLPNQPSGYRVAGYETQ
notes: TIA-1, human, short PLD, residues 320-386, with the disease-associated missense mutation P362L
B5: human TIA-1 sPLD (residues 320-386) W353A (domain or fragment, UniProt P31483 320-386, looked up)
chain: GQYMPNGWQVPAYGMYGQAWNQQGFNQTQSSAPAMGPNYGVQPPQGQNGSMLPNQPSGYRVAGYETQ
notes: TIA-1, human, short PLD, residues 320-386, with W353A
B6: human TIA-1 sPLD (residues 320-386) A381T (domain or fragment, UniProt P31483 320-386, looked up)
chain: GQYMPNGWQVPAYGMYGQAWNQQGFNQTQSSAPWMGPNYGVQPPQGQNGSMLPNQPSGYRVTGYETQ
notes: TIA-1, human, short PLD, residues 320-386, with the disease-associated missense mutation A381T
B7: human TIA-1 sPLD (residues 320-386) M354A (domain or fragment, UniProt P31483 320-386, looked up)
chain: GQYMPNGWQVPAYGMYGQAWNQQGFNQTQSSAPWAGPNYGVQPPQGQNGSMLPNQPSGYRVAGYETQ
notes: TIA-1, human, short PLD, residues 320-386, with M354A
B8: human TIA-1 sPLD (residues 320-386) G343P (domain or fragment, UniProt P31483 320-386, looked up)
chain: GQYMPNGWQVPAYGMYGQAWNQQPFNQTQSSAPWMGPNYGVQPPQGQNGSMLPNQPSGYRVAGYETQ
notes: TIA-1, human, short PLD, residues 320-386, with G343P
B9: human TIA-1 sPLD (residues 320-386) Q348L (domain or fragment, UniProt P31483 320-386, looked up)
chain: GQYMPNGWQVPAYGMYGQAWNQQGFNQTLSSAPWMGPNYGVQPPQGQNGSMLPNQPSGYRVAGYETQ
notes: TIA-1, human, short PLD, residues 320-386, with Q348L
B10: human TIA-1 sPLD (residues 320-386) Q346L (domain or fragment, UniProt P31483 320-386, looked up)
chain: GQYMPNGWQVPAYGMYGQAWNQQGFNLTQSSAPWMGPNYGVQPPQGQNGSMLPNQPSGYRVAGYETQ
notes: TIA-1, human, short PLD, residues 320-386, with Q346L
B11: human wild-type TIA-1 short prion-like domain (sPLD), residues 320-386 (domain or fragment, UniProt P31483 320-386, looked up)
chain: GQYMPNGWQVPAYGMYGQAWNQQGFNQTQSSAPWMGPNYGVQPPQGQNGSMLPNQPSGYRVAGYETQ
notes: T-cell intracellular antigen-1 (TIA-1), human, 386 residues; short PLD, residues 320-386; Only residues 336-360 are resolved in the fibril structure; also called WT TIA-1 sPLD; TIA-1 sPLD
B12: human TIA-1 sPLD (residues 320-386) with the G355R missense mutation (domain or fragment, UniProt P31483 320-386, looked up)
chain: GQYMPNGWQVPAYGMYGQAWNQQGFNQTQSSAPWMRPNYGVQPPQGQNGSMLPNQPSGYRVAGYETQ
notes: TIA-1, human, short PLD, residues 320-386, with G355R (found in genetic research on ALS/FTD); Only residues 334-349 are resolved in the fibril structure; also called G355R TIA-1 sPLD; TIA-1 G355R fibrils
B13: full-length human TIA-1 WT (natural protein, UniProt P31483 1-386, looked up)
chain: MEDEMPKTLYVGNLSRDVTEALILQLFSQIGPCKNCKMIMDTAGNDPYCFVEFHEHRHAAAALAAMNGRKIMGKEVKVNWATTPSSQKKDTSSSTVVSTQRSQDHFHVFVGDLSPEITTEDIKAAFAPFGRISDARVVKDMATGKSKGYGFVSFFNKWDAENAIQQMGGQWLGGRQIRTNWATRKPPAPKSTYESNTKQLSYDEVVNQSSPSNCTVYCGGVTSGLTEQLMRQTFSPFGQIMEIRVFPDKGYSFVRFNSHESAAHAIVSVNGTTIEGHVVKCYWGKETLDMINPVQQQNQIGYPQPYGQWGQWYGNAQQIGQYMPNGWQVPAYGMYGQAWNQQGFNQTQSSAPWMGPNYGVQPPQGQNGSMLPNQPSGYRVAGYETQ
notes: T-cell intracellular antigen-1 (TIA-1), human, full length, 386 residues (three RRMs followed by the PLD); also called full-length TIA-1; FL; source: recombinant
B14: full-length human TIA-1 E384K (natural protein, UniProt P31483 1-386, looked up)
chain: MEDEMPKTLYVGNLSRDVTEALILQLFSQIGPCKNCKMIMDTAGNDPYCFVEFHEHRHAAAALAAMNGRKIMGKEVKVNWATTPSSQKKDTSSSTVVSTQRSQDHFHVFVGDLSPEITTEDIKAAFAPFGRISDARVVKDMATGKSKGYGFVSFFNKWDAENAIQQMGGQWLGGRQIRTNWATRKPPAPKSTYESNTKQLSYDEVVNQSSPSNCTVYCGGVTSGLTEQLMRQTFSPFGQIMEIRVFPDKGYSFVRFNSHESAAHAIVSVNGTTIEGHVVKCYWGKETLDMINPVQQQNQIGYPQPYGQWGQWYGNAQQIGQYMPNGWQVPAYGMYGQAWNQQGFNQTQSSAPWMGPNYGVQPPQGQNGSMLPNQPSGYRVAGYKTQ
notes: TIA-1, human, full length, 386 residues, with the disease-associated missense mutation E384K; source: recombinant
B15: full-length human TIA-1 P362L (natural protein, UniProt P31483 1-386, looked up)
chain: MEDEMPKTLYVGNLSRDVTEALILQLFSQIGPCKNCKMIMDTAGNDPYCFVEFHEHRHAAAALAAMNGRKIMGKEVKVNWATTPSSQKKDTSSSTVVSTQRSQDHFHVFVGDLSPEITTEDIKAAFAPFGRISDARVVKDMATGKSKGYGFVSFFNKWDAENAIQQMGGQWLGGRQIRTNWATRKPPAPKSTYESNTKQLSYDEVVNQSSPSNCTVYCGGVTSGLTEQLMRQTFSPFGQIMEIRVFPDKGYSFVRFNSHESAAHAIVSVNGTTIEGHVVKCYWGKETLDMINPVQQQNQIGYPQPYGQWGQWYGNAQQIGQYMPNGWQVPAYGMYGQAWNQQGFNQTQSSAPWMGPNYGVQLPQGQNGSMLPNQPSGYRVAGYETQ
notes: TIA-1, human, full length, 386 residues, with the disease-associated missense mutation P362L; source: recombinant
B16: full-length human TIA-1 A381T (natural protein, UniProt P31483 1-386, looked up)
chain: MEDEMPKTLYVGNLSRDVTEALILQLFSQIGPCKNCKMIMDTAGNDPYCFVEFHEHRHAAAALAAMNGRKIMGKEVKVNWATTPSSQKKDTSSSTVVSTQRSQDHFHVFVGDLSPEITTEDIKAAFAPFGRISDARVVKDMATGKSKGYGFVSFFNKWDAENAIQQMGGQWLGGRQIRTNWATRKPPAPKSTYESNTKQLSYDEVVNQSSPSNCTVYCGGVTSGLTEQLMRQTFSPFGQIMEIRVFPDKGYSFVRFNSHESAAHAIVSVNGTTIEGHVVKCYWGKETLDMINPVQQQNQIGYPQPYGQWGQWYGNAQQIGQYMPNGWQVPAYGMYGQAWNQQGFNQTQSSAPWMGPNYGVQPPQGQNGSMLPNQPSGYRVTGYETQ
notes: TIA-1, human, full length, 386 residues, with the disease-associated missense mutation A381T; source: recombinant
B17: full-length human TIA-1 G355R (natural protein, UniProt P31483 1-386, looked up)
chain: MEDEMPKTLYVGNLSRDVTEALILQLFSQIGPCKNCKMIMDTAGNDPYCFVEFHEHRHAAAALAAMNGRKIMGKEVKVNWATTPSSQKKDTSSSTVVSTQRSQDHFHVFVGDLSPEITTEDIKAAFAPFGRISDARVVKDMATGKSKGYGFVSFFNKWDAENAIQQMGGQWLGGRQIRTNWATRKPPAPKSTYESNTKQLSYDEVVNQSSPSNCTVYCGGVTSGLTEQLMRQTFSPFGQIMEIRVFPDKGYSFVRFNSHESAAHAIVSVNGTTIEGHVVKCYWGKETLDMINPVQQQNQIGYPQPYGQWGQWYGNAQQIGQYMPNGWQVPAYGMYGQAWNQQGFNQTQSSAPWMRPNYGVQPPQGQNGSMLPNQPSGYRVAGYETQ
notes: TIA-1, human, full length, 386 residues, with the missense mutation G355R (found in genetic research on ALS/FTD); source: recombinant

One series concerns the molecule itself. Nature of the series: thioflavin T fluorescence + negative-stain TEM; fibril formation of the synthetic TFC peptide alone, 100 to 12.5 μM.
Consider B1, for which the binding result was “binds”.

Another series deals with the molecule itself. Nature of the series: thioflavin T fluorescence + negative-stain TEM; fibril formation of TIA-1 sPLD from phase-separated condensates, without TC5, physiological buffer, 30 °C, 3 days.
With B2, the binding result is “binds”. The same measure, in the same setting: the result for B3 reads “binds”. Still for that read-out and setting: the result for B4 reads “binds”; that for B5, “binds”. Still for that read-out and setting: then B6, with “binds”; and B7, with “binds”.

As for B8, the binding result was “binds”. Same read-out and setting: the result for B9 reads “binds”; that for B10, “binds”.

Another series deals with the molecule itself. Nature of the series: cryo-EM structure; twisted amyloid fibrils of TIA-1 sPLD; fibrils grown by adding sonicated seeds to a monomer solution in 0.1% trifluoroacetic acid; helical reconstruction, two protofilaments.
Regarding B11, the binding result is given as “binds”.

B12: the binding result was “binds”.

A further series concerns the molecule itself. Nature of the series: thioflavin T fluorescence + negative-stain TEM; fibril formation of recombinant full-length TIA-1 from phase-separated condensates, with single-stranded DNA TC5, physiological buffer, 30 °C, up to 3 days.
Consider B13, for which the binding result is recorded as “binds”. Same read-out and setting: then B14, with “binds”.

For the protein B15, the binding result is reported as “binds”. Same read-out and setting: then B16, with “binds”; and B17, with “binds”.
